± gives the standard deviation of the averaged measurements.
What was measured:
MCF7 = test: percentage of EdU-negative (G0-arrested) nuclei per well, 72 h; higher = more G0 arrest; conditions: reference: sequence is the full UniProt precursor, the tested protein was the secreted form or ectodomain
hTERT-HMEC = test: as above; conditions: reference: sequence is the full UniProt precursor, the tested protein was the secreted form or ectodomain
[1] = protein concentration 0.0065 µM
[2] = protein concentration 0.0225 µM
[3] = protein concentration 0.010965 µM
[4] = protein concentration 0.10965 µM
[5] = protein concentration 0.03125 µM
[6] = protein concentration 0.3125 µM
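Also: secreted proteins added to cultured cells, EdU pulse at the end, nuclei found by Hoechst imaging, EdU status from nuclear versus surrounding ring intensity ratio, PBS as neutral control.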

Sequence	percentage of EdU-negative (MCF7; [2]) [%]	percentage of EdU-negative (MCF7; protein concentration 0.225 µM) [%]	percentage of EdU-negative (hTERT-HMEC; [2]) [%]	percentage of EdU-negative (hTERT-HMEC; protein concentration 0.225 µM) [%]	other results
MARPVRGGLGAPRRSPCLLLLWLLLLRLEPVTAAAGPRAPCAAACTCAGDSLDCGGRGLAALPGDLPSWTRSLNLSYNKLSEIDPAGFEDLPNLQEVYLNNNELTAVPSLGAASSHVVSLFLQHNKIRSVEGSQLKAYLSLEVLDLSLNNITEVRNTCFPHGPPIKELNLAGNRIGTLELGAFDGLSRSLLTLRLSKNRITQLPVRAFKLPRLTQLDLNRNRIRLIEGLTFQGLNSLEVLKLQRNNISKLTDGAFWGLSKMHVLHLEYNSLVEVNSGSLYGLTALHQLHLSNNSIARIHRKGWSFCQKLHELVLSFNNLTRLDEESLAELSSLSVLRLSHNSISHIAEGAFKGLRSLRVLDLDHNEISGTIEDTSGAFSGLDSLSKLTLFGNKIKSVAKRAFSGLEGLEHLNLGGNAIRSVQFDAFVKMKNLKELHISSDSFLCDCQLKWLPPWLIGRMLQAFVTATCAHPESLKGQSIFSVPPESFVCDDFLKPQIITQPETTMAMVGKDIRFTCSAASSSSSPMTFAWKKDNEVLTNADMENFVHVHAQDGEVMEYTTILHLRQVTFGHEGRYQCVITNHFGSTYSHKARLTVNVLPSFTKTPHDITIRTTTMARLECAATGHPNPQIAWQKDGGTDFPAARERRMHVMPDDDVFFITDVKIDDAGVYSCTAQNSAGSISANATLTVLETPSLVVPLEDRVVSVGETVALQCKATGNPPPRITWFKGDRPLSLTERHHLTPDNQLLVVQNVVAEDAGRYTCEMSNTLGTERAHSQLSVLPAAGCRKDGTTVGIFTIAVVSSIVLTSLVWVCIIYQTRKKSEEYSVTNTDETVVPPDVPSYLSSQGTLSDRQETVVRTEGGPQANGHIESNGVCPRDASHFPEPDTHSVACRQPKLCAGSAYHKEPWKAMEKAEGTPGPHKMEHGGRVVCSDCNTEVDCYSRGQAFHPQPVSRDSAQPSAPNGPEPGGSDQEHSPHHQCSRTAAGSCPECQGSLYPSNHDRMLTAVKKKPMASLDGKGDSSWTLARLYHPDSTELQPASSLTSGSPERAEAQYLLVSNGHLPKACDASPESTPLTGQLPGKQRVPLLLAPKS [Q96JA1]	–	–	–	–	percentage of EdU-negative (MCF7; [1]): 25.4 ± 1%; percentage of EdU-negative (MCF7; protein concentration 0.065 µM): 25.8 ± 3.1%; percentage of EdU-negative (hTERT-HMEC; [1]): 4.69 ± 0.4%; percentage of EdU-negative (hTERT-HMEC; protein concentration 0.065 µM): 8.75 ± 1.2%
MARRRRRACIALFLVLLFAFGTLMGLRTLKAPDGLPALGPGLELAPFERRPEGAPAPAARAPAAPAAPPPPPPPPRTADPGGSPGPAPAEAEPAPVQSLRVYSDLHAFYYSWYGSPRREGHYIHWDHVMVPHWDPKISASYPRGRHSPPDDLGSSFYPELGPYSSRDPEVLREHMTQLKEAAIGVLVLSWYPPGMADDNGEPSDDLVPAILDTAHQYSIQVAFHIQPYKGRDDITVHDNIKYIIDTYGSHGAFYRYKNSMGKSLPLFYIYDSYLTSPEAWAHLLTPNGPHSIRNTPYDGVFIALLVEEGHTHDILAAGFDGMYTYFASNGFSFGSSHQNWKAVKNFCDANNLMFIPSVGPGYIDTSIRPWNNHNTRNRVNGKYYETALQAALTVRPEIVSITSFNEWHEGTQIEKAIPKKTPTRLYLDYLPHQPSLYLELTRRWAEHFIKEKEQWLM [Q5VSG8]	25.6 ± 0.44	28.3 ± 2.4	4.99 ± 0.62	9.23 ± 0.73	–
MARRSRHRLLLLLLRYLVVALGYHKAYGFSAPKDQQVVTAVEYQEAILACKTPKKTVSSRLEWKKLGRSVSFVYYQQTLQGDFKNRAEMIDFNIRIKNVTRSDAGKYRCEVSAPSEQGQNLEEDTVTLEVLVAPAVPSCEVPSSALSGTVVELRCQDKEGNPAPEYTWFKDGIRLLENPRLGSQSTNSSYTMNTKTGTLQFNTVSKLDTGEYSCEARNSVGYRRCPGKRMQVDDLNISGIIAAVVVVALVISVCGLGVCYAQRKGYFSKETSFQKSNSSSKATTMSENDFKHTKSFII	24.2 ± 0.62	25.4 ± 2.1	5.13 ± 0.27	4.52 ± 0.093	–
MARSLVCLGVIILLSAFSGPGVRGGPMPKLADRKLCADQECSHPISMAVALQDYMAPDCRFLTIHRGQVVYVFSKLKGRGRLFWGGSVQGDYYGDLAARLGYFPSSIVREDQTLKPGKVDVKTDKWDFYCQ	–	–	–	–	percentage of EdU-negative (MCF7; [3]): 26.1 ± 1.1%; percentage of EdU-negative (MCF7; [4]): 26.2 ± 1.9%; percentage of EdU-negative (hTERT-HMEC; [3]): 5.39 ± 0.091%; percentage of EdU-negative (hTERT-HMEC; [4]): 5.67 ± 0.4%
MARSNLPLALGLALVAFCLLALPRDARARPQERMVGELRDLSPDDPQVQKAAQAAVASYNMGSNSIYYFRDTHIIKAQSQLVAGIKYFLTMEMGSTDCRKTRVTGDHVDLTTCPLAAGAQQEKLRCDFEVLVVPWQNSSQLLKHNCVQM	–	–	–	–	percentage of EdU-negative (MCF7; [5]): 26.7 ± 0.57%; percentage of EdU-negative (MCF7; [6]): 25.4 ± 1.2%; percentage of EdU-negative (hTERT-HMEC; [5]): 5.74 ± 0.7%; percentage of EdU-negative (hTERT-HMEC; [6]): 6.46 ± 0.57%
MARSPGRAYALLLLLICFNVGSGLHLQVLSTRNENKLLPKHPHLVRQKRAWITAPVALREGEDLSKKNPIAKIHSDLAEERGLKITYKYTGKGITEPPFGIFVFNKDTGELNVTSILDREETPFFLLTGYALDARGNNVEKPLELRIKVLDINDNEPVFTQDVFVGSVEELSAAHTLVMKINATDADEPNTLNSKISYRIVSLEPAYPPVFYLNKDTGEIYTTSVTLDREEHSSYTLTVEARDGNGEVTDKPVKQAQVQIRILDVNDNIPVVENKVLEGMVEENQVNVEVTRIKVFDADEIGSDNWLANFTFASGNEGGYFHIETDAQTNEGIVTLIKEVDYEEMKNLDFSVIVANKAAFHKSIRSKYKPTPIPIKVKVKNVKEGIHFKSSVISIYVSESMDRSSKGQIIGNFQAFDEDTGLPAHARYVKLEDRDNWISVDSVTSEIKLAKLPDFESRYVQNGTYTVKIVAISEDYPRKTITGTVLINVEDINDNCPTLIEPVQTICHDAEYVNVTAEDLDGHPNSGPFSFSVIDKPPGMAEKWKIARQESTSVLLQQSEKKLGRSEIQFLISDNQGFSCPEKQVLTLTVCECLHGSGCREAQHDSYVGLGPAAIALMILAFLLLLLVPLLLLMCHCGKGAKGFTPIPGTIEMLHPWNNEGAPPEDKVVPSFLPVDQGGSLVGRNGVGGMAKEATMKGSSSASIVKGQHEMSEMDGRWEEHRSLLSGRATQFTGATGAIMTTETTKTARATGASRDMAGAQAAAVALNEEFLRNYFTDKAASYTEEDENHTAKDCLLVYSQEETESLNASIGCCSFIEGELDDRFLDDLGLKFKTLAEVCLGQKIDINKEIEQRQKPATETSMNTASHSLCEQTMVNSENTYSSGSSFPVPKSLQEANAEKVTQEIVTERSVSSRQAQKVATPLPDPMASRNVIATETSYVTGSTMPPTTVILGPSQPQSLIVTERVYAPASTLVDQPYANEGTVVVTERVIQPHGGGSNPLEGTQHLQDVPYVMVRERESFLAPSSGVQPTLAMPNIAVGQNVTVTERVLAPASTLQSSYQIPTENSMTARNTTVSGAGVPGPLPDFGLEESGHSNSTITTSSTRVTKHSTVQHSYS [J3KSI6]	25 ± 1.2	26.57 ± 0.18	4.92 ± 0.3	5.13 ± 0.22	–
